Target: recombinant AvrM-A Δ28 with an N-terminal hexahistidine tag (Melampsora lini (flax rust))
Assay: SEC-MALS

recombinant AvrM-A Δ28 with an N-terminal hexahistidine tag (natural protein)
stoichiometry N: 2

Reference: paper PMC3142614
